The record followed here is publication PMC10519987.

Assay [1] deals with carboxy-terminal domain of Saccharomyces cerevisiae RNA polymerase II subunit RPB1 (yCTD) (Saccharomyces cerevisiae). The experiment in a line: dynamic light scattering + microscopy; tag-free CTD alone, no crowding agents; 25 mM HEPES, 1.0 mM TCEP, pH 7.4 (also pH 6.2), 50-1000 mM NaCl, rising temperature; self-coacervation into droplets.
For assay [2], the target named is carboxy-terminal domain of human RNA polymerase II subunit RPB1 (hCTD) (human) (UniProt P24928). Described as above.

As for “carboxy-terminal domain of Saccharomyces cerevisiae RNA polymerase II subunit RPB1 (yCTD) (domain or fragment)”, the minimal concentration of droplet formation in assay [1] worked out at 100 µM.

Take “carboxy-terminal domain of human RNA polymerase II subunit RPB1 (hCTD) (from UniProt P24928 1593-1970) (domain or fragment)”: the minimal concentration of droplet formation in assay [2] was 25 µM.
